The values below come from publication PMC2768832 (The Journal of Cell Biology, 2009).

The target in the assay is p97/VCP-His, recombinant full-length mouse p97/VCP (mouse, UniProt Q01853 1-806). In words: pull-down.
Chain of p97/VCP-His, recombinant full-length mouse p97/VCP (Q01853 whole entry): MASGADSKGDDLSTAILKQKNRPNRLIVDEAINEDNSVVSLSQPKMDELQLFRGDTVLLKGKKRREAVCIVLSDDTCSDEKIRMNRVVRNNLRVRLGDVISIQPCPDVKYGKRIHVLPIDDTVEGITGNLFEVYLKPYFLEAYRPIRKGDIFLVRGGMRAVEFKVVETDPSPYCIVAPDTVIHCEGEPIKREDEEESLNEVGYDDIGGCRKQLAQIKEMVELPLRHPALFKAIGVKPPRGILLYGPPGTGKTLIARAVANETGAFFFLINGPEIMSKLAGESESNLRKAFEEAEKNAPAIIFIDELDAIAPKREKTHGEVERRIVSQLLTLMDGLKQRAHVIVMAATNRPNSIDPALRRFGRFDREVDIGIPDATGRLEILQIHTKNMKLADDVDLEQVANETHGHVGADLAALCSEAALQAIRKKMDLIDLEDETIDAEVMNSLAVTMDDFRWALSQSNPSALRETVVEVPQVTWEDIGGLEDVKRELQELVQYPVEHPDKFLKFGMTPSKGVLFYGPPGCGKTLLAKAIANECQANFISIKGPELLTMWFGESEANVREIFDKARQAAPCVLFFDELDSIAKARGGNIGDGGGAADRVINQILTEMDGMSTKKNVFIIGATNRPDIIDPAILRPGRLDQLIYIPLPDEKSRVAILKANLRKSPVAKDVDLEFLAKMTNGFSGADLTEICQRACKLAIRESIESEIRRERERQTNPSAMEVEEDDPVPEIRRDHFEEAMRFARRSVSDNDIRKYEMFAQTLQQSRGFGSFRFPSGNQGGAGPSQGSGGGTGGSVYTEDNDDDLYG

B1: erasin-His, recombinant full-length human erasin (natural protein)
chain: MLWFQGAIPAAIATAKRSGAVFVVFVAGDDEQSTQMAASWEDDKVTEASSNSFVAIKIDTKSEACLQFSQIYPVVCVPSSFFIGDSGIPLEVIAGSVSADELVTRIHKVRQMHLLKSETSVANGSQSESSVSTPSASFEPNNTCENSQSRNAELCEIPPTSDTKSDTATGGESAGHATSSQEPSGCSDQRPAEDLNIRVERLTKKLEERREEKRKEEEQREIKKEIERRKTGKEMLDYKRKQEEELTKRMLEERNREKAEDRAARERIKQQIALDRAERAARFAKTKEEVEAAKAAALLAKQAEMEVKRESYARERSTVARIQFRLPDGSSFTNQFPSDAPLEEARQFAAQTVGNTYGNFSLATMFPRREFTKEDYKKKLLDLELAPSASVVLLPAGRPTASIVHSSSGDIWTLLGTVLYPFLAIWRLISNFLFSNPPPTQTSVRVTSSEPPNPASSSKSEKREPVRKRVLEKRGDDFKKEGKIYRLRTQDDGEDENNTWNGNSTQQM
Turning to B1, the binding result is listed as “binds”.
